Measurements as given in patent publication US20250236642A1 (NEC, published 2025).

What was measured:
[1] = biological target: T1, HLA-A*02:01 molecule; test: flow cytometry, T2 cells
T1 construct: MHC class I molecule on T2 cells (ATCC); also called product of an HLA-A*02:01 gene; allele A*02:01

[2] = biological target: T2, HLA-A*24:02 molecule; test: flow cytometry, C1R-A24 cells;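 also: Read-out was the amount of peptide–MHC complex on each cell, taken as the fluorescence intensity of a bound fluorescent antibody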
T2 construct: MHC class I molecule on C1R-A24 cells, endogenous peptide and b2m stripped at pH 3.3, purified b2m added back; also called product of an HLA-A*24:02 gene; allele A*24:02
Text: Thereafter, the number of MHC-peps for each C1R-A24 cell (proportional to a fluorescence intensity of the fluorescent antibody) was quantitatively measured using a fluorescence cell analyzer FACScan (Becton-Dickinson).

Row | Binder | log Kd [1] | log10 Kd (M) [2]
1 | LLITRKSFI (synthetic 9-mer derived from Fas; also called A10) [peptide of SEQ ID NO: 16] | -5.13 | -6.64
2 | LMITRKSFI (synthetic 9-mer derived from Fas) [peptide of SEQ ID NO: 17] | -5.2 | -6.01
3 | LVITRKSFI (synthetic 9-mer derived from Fas) [peptide of SEQ ID NO: 30] | -4.01 | -5.46
4 | LHITRKSFI (synthetic 9-mer derived from Fas) [peptide of SEQ ID NO: 63] | – | -4.76
5 | LAITRKSFI (synthetic 9-mer derived from Fas) [peptide of SEQ ID NO: 46] | – | -5.12
6 | ISAYRTCWI (synthetic 9-mer derived from Casp-8) [peptide of SEQ ID NO: 34] | – | -5
7 | VLPPARHST (synthetic 9-mer derived from c-Myb) [peptide of SEQ ID NO: 54] | -5.11 | –
8 | YVYDPPTTI (synthetic 9-mer derived from CADM1) [peptide of SEQ ID NO: 2] | -6.16 | -6.23
9 | YTYDPPTTI (synthetic 9-mer derived from CADM1) [peptide of SEQ ID NO: 3] | -5.47 | -5.51
10 | YLYDPPTTI (synthetic 9-mer derived from CADM1) [peptide of SEQ ID NO: 4] | -6.23 | -6.16
11 | SLVLTWAAL (synthetic 9-mer derived from EVC2) [peptide of SEQ ID NO: 14] | -5.63 | -5.31
12 | SSLDPPKVL (synthetic 9-mer derived from c-Myb) [peptide of SEQ ID NO: 55] | – | -5.35
13 | IFADVSSST (synthetic 9-mer derived from c-Myb) [peptide of SEQ ID NO: 78] | > -3 | > -3
14 | KFLEAFHEV (synthetic 9-mer derived from EVC1) [peptide of SEQ ID NO: 8] | -5.93 | -6.88
15 | AQAPPTAQL (synthetic 9-mer derived from c-Myb) [peptide of SEQ ID NO: 5] | -6.02 | -5.75
16 | SLPNEKQTS (synthetic 9-mer derived from Casp-8) [peptide of SEQ ID NO: 69] | > -3 | > -3
17 | GILSDHQQS (synthetic 9-mer derived from Casp-8) [peptide of SEQ ID NO: 74] | > -3 | > -3
18 | VLLQQFQTA (synthetic 9-mer derived from EVC2) [peptide of SEQ ID NO: 15] | -4.71 | -5.55
19 | CLDEHQWQL (synthetic 9-mer derived from EVC1) [peptide of SEQ ID NO: 9] | -6.66 | -5.87
20 | CIDEHQWQL (synthetic 9-mer derived from EVC1) [peptide of SEQ ID NO: 28] | -4.85 | -3.48

Row | Binder | log Kd [1] | log10 Kd (M) [2]
21 | ALRPAPALL (synthetic 9-mer derived from EVC1) [peptide of SEQ ID NO: 26] | -6.11 | -6.4
22 | ARHSTIPLV (synthetic 9-mer derived from c-Myb) [peptide of SEQ ID NO: 77] | > -3 | > -3
23 | VFGRVMQID (synthetic 9-mer derived from Wnt5a; also called A15) [peptide of SEQ ID NO: 66] | – | -5.41
24 | EAIDGYITL (synthetic 9-mer; also called H1) [peptide of SEQ ID NO: 47] | – | -5.54
25 | CMIVHQGTI (synthetic 9-mer derived from c-Myb) [peptide of SEQ ID NO: 36] | – | -5.54
26 | GYITLGKPH (synthetic 9-mer derived from Helios) [peptide of SEQ ID NO: 80] | > -3 | > -3
27 | ATLAPAVLL (synthetic 9-mer derived from EVC1) [peptide of SEQ ID NO: 10] | -5.56 | -5.2
28 | AVLAPAVLL (synthetic 9-mer derived from EVC1) [peptide of SEQ ID NO: 27] | -5.15 | 4.81
29 | LMEEHGATL (synthetic 9-mer derived from EVC2) [peptide of SEQ ID NO: 13] | -4.92 | -5.22
30 | LIEEHGATL (synthetic 9-mer derived from EVC2) [peptide of SEQ ID NO: 40] | -4.5 | –
31 | LHEEHGATL (synthetic 9-mer derived from EVC2) [peptide of SEQ ID NO: 79] | > -3 | > -3
32 | LTEEHGATL (synthetic 9-mer derived from EVC2) [peptide of SEQ ID NO: 42] | -4.09 | –
33 | SLPFSPSQF (synthetic 9-mer derived from c-Myb) [peptide of SEQ ID NO: 56] | – | -7
34 | TVLVPPRNL (synthetic 9-mer derived from CADM1) [peptide of SEQ ID NO: 48] | – | -8.27
35 | CDLSSFEFF (synthetic 9-mer derived from c-Myb) [peptide of SEQ ID NO: 58] | – | -4.1
36 | LPFSPSQFL (synthetic 9-mer derived from c-Myb) [peptide of SEQ ID NO: 60] | – | -3.35
37 | MLPQTPSHL (synthetic 9-mer derived from c-Myb) [peptide of SEQ ID NO: 24] | -5.58 | -7.14
38 | ILSDHQQSQ (synthetic 9-mer derived from Casp-8) [peptide of SEQ ID NO: 70] | > -3 | > -3
39 | FIDSDSSSW (synthetic 9-mer derived from c-Myb) [peptide of SEQ ID NO: 57] | – | -4.7

Further lines, results first:

Row | log Kd [1] | log10 Kd (M) [2] | Binder
40 | > -3 | > -3 | ASPSHMTSM (synthetic 9-mer derived from Helios) [peptide of SEQ ID NO: 81]
41 | – | -4.82 | LTITRKSFI (synthetic 9-mer derived from Fas) [peptide of SEQ ID NO: 45]
42 | -4.11 | -5.6 | LIITRKSFI (synthetic 9-mer derived from Fas) [peptide of SEQ ID NO: 29]
43 | – | -4.16 | HMTSSERPF (synthetic 9-mer derived from Helios) [peptide of SEQ ID NO: 64]
44 | – | -6.77 | YFFTVIFSF (synthetic 9-mer derived from Fas) [peptide of SEQ ID NO: 44]
45 | > -3 | > -3 | LPPARHSTI (synthetic 9-mer derived from c-Myb) [peptide of SEQ ID NO: 76]
46 | > -3 | > -3 | SPDEFSNDF (synthetic 9-mer derived from Casp-8) [peptide of SEQ ID NO: 73]
47 | -5.08 | -6.1 | VMSHHGEKL (synthetic 9-mer derived from Helios; also called A13) [peptide of SEQ ID NO: 19]
48 | > -3 | > -3 | GSPDEFSND (synthetic 9-mer derived from Casp-8) [peptide of SEQ ID NO: 72]
49 | -3.9 | – | FSNDFGQSL (synthetic 9-mer derived from Casp-8) [peptide of SEQ ID NO: 35]
50 | -5.69 | -6.03 | HMAKVIEFL (synthetic 9-mer derived from EVC1) [peptide of SEQ ID NO: 38]
51 | -4.08 | – | ATGDCSSFI (synthetic 9-mer derived from c-Myb) [peptide of SEQ ID NO: 59]
52 | -6.58 | -5.33 | ALAPPTAQL (synthetic 9-mer derived from c-Myb) [peptide of SEQ ID NO: 6]
53 | -5 | -4.54 | ATAPPTAQL (synthetic 9-mer derived from c-Myb) [peptide of SEQ ID NO: 25]
54 | -6.49 | – | SSFEFFEEA (synthetic 9-mer derived from c-Myb) [peptide of SEQ ID NO: 37]
55 | -5.04 | – | CTDEHQWQL (synthetic 9-mer derived from EVC1) [peptide of SEQ ID NO: 39]
56 | > -3 | > -3 | STGESAQTS (synthetic 9-mer derived from Casp-8) [peptide of SEQ ID NO: 71]
57 | -5.24 | -6.22 | LLNPNRQTI (synthetic 9-mer derived from CADM1) [peptide of SEQ ID NO: 23]
58 | > -3 | > -3 | THLDAGTVE (synthetic 9-mer derived from Casp-8) [peptide of SEQ ID NO: 75]
59 | -5.66 | -6.18 | ALPKIRARV (synthetic 9-mer derived from EVC2) [peptide of SEQ ID NO: 12]
60 | – | -5.42 | AYRTCWIFS (synthetic 9-mer derived from Casp-8) [peptide of SEQ ID NO: 49]
61 | -5.6 | – | LLEEHGATL (synthetic 9-mer derived from EVC2) [peptide of SEQ ID NO: 41]
62 | -4.18 | – | LVEEHGATL (synthetic 9-mer derived from EVC2) [peptide of SEQ ID NO: 43]
63 | -6.06 | -4.96 | LLLFSAAAL (synthetic 9-mer derived from CADM1) [peptide of SEQ ID NO: 1]
64 | – | -6.52 | GYITCERPF (synthetic 9-mer derived from Helios) [peptide of SEQ ID NO: 65]
65 | – | -4.63 | GRVMQIDGV (synthetic 9-mer derived from Wnt5a) [peptide of SEQ ID NO: 68]
66 | – | -5.84 | SLLITRKSF (synthetic 9-mer derived from Fas) [peptide of SEQ ID NO: 62]
